Measurements reported in article doi:10.1101/235556.

Biological target: Polyhydroxyalkanoate synthase PhaC from Aquitalea sp. USM4 (JCM 19919) (Aquitalea sp. USM4 (JCM 19919))
Assay: SEC

- stoichiometry N: 2
Substance: Polyhydroxyalkanoate synthase PhaC from Aquitalea sp. USM4 (JCM 19919) (enzyme)
